# B1: KRT71 (parent)
# chain: FGSRSLYSLGGVRSLNVASGSGKS
# B2: ZNF511 (parent)
# chain: EPLPVERDPAAGAAPFRFVARPVR
# Variants of: B1
# Assay: protein stability index of a GFP-peptide fusion (GPS, HEK-293T) (PSI 1-6); higher = more stable
# Conditions: c terminus: a fixed tail appended
# 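Note: lentivirally expressed fusions sorted by FACS into six bins by GFP to DsRed ratio, PSI derived from sequencing read proportions per bin multiplied by bin number.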
row,Variant,protein stability index
1,FGYRSLYSLGGVRSLNVASGSGKS [S3Y],2.7
2,FGSRSLYNLGGVRSLNVASGSGKS [S8N],2.4
3,FGSRSLYVLGGVRSLNVASGSGKS [S8V],2.23
4,FGSRSLYHLGGVRSLNVASGSGKS [S8H],2.89
5,FGSRSLYMLGGVRSLNVASGSGKS [S8M],1.38
6,FGSRSLYELGGVRSLNVASGSGKS [S8E],2.75
7,FGSRSLYCLGGVRSLNVASGSGKS [S8C],2.1
8,FGSRSLYWLGGVRSLNVASGSGKS [S8W],2.62
9,FGSRSLYGLGGVRSLNVASGSGKS [S8G],2
10,FGSRSLYYLGGVRSLNVASGSGKS [S8Y],1.2
11,FGSRSLYQLGGVRSLNVASGSGKS [S8Q],1.72
12,FGSRSLYPLGGVRSLNVASGSGKS [S8P],1.72
13,FGSRSLYLLGGVRSLNVASGSGKS [S8L],2.2
14,FGSRSLYILGGVRSLNVASGSGKS [S8I],1.54
15,FGSRSLYFLGGVRSLNVASGSGKS [S8F],1.21
16,FGSRSLYRLGGVRSLNVASGSGKS [S8R],1.69
17,FGSRSLYDLGGVRSLNVASGSGKS [S8D],3.44
18,FGSRSLYALGGVRSLNVASGSGKS [S8A],2.17
19,FGSRSLYKLGGVRSLNVASGSGKS [S8K],2.14
20,FGSRSLYTLGGVRSLNVASGSGKS [S8T],1.89
21,FGSRSLYSKGGVRSLNVASGSGKS [L9K],2.27
22,FGSRSLYSMGGVRSLNVASGSGKS [L9M],1.83
23,FGSRSLYSEGGVRSLNVASGSGKS [L9E],2.59
24,FGSRSLYSGGGVRSLNVASGSGKS [L9G],2.66
25,FGSRSLYSAGGVRSLNVASGSGKS [L9A],2.5
26,FGSRSLYSNGGVRSLNVASGSGKS [L9N],2.51

row,Variant,protein stability index
1,FGSRSLYSQGGVRSLNVASGSGKS [L9Q],2.79
2,FGSRSLYSCGGVRSLNVASGSGKS [L9C],2.12
3,FGSRSLYSIGGVRSLNVASGSGKS [L9I],1.75
4,FGSRSLYSPGGVRSLNVASGSGKS [L9P],2.6
5,FGSRSLYSYGGVRSLNVASGSGKS [L9Y],1.77
6,FGSRSLYSTGGVRSLNVASGSGKS [L9T],2.64
7,FGSRSLYSDGGVRSLNVASGSGKS [L9D],2.56
8,FGSRSLYSVGGVRSLNVASGSGKS [L9V],2.62
9,FGSRSLYSSGGVRSLNVASGSGKS [L9S],2.18
10,FGSRSLYSWGGVRSLNVASGSGKS [L9W],1.87
11,FGSRSLYSFGGVRSLNVASGSGKS [L9F],1.88
12,FGSRSLYSRGGVRSLNVASGSGKS [L9R],2.56
13,FGSRSLYSHGGVRSLNVASGSGKS [L9H],2.75
14,FGSRSEYSLGGVRSLNVASGSGKS [L6E],3.14
15,FGSRSFYSLGGVRSLNVASGSGKS [L6F],3.13
16,FGSRSVYSLGGVRSLNVASGSGKS [L6V],1.62
17,FGSRSQYSLGGVRSLNVASGSGKS [L6Q],2.62
18,FGSRSWYSLGGVRSLNVASGSGKS [L6W],2.94
19,FGSRSIYSLGGVRSLNVASGSGKS [L6I],2.29
20,FGSRSGYSLGGVRSLNVASGSGKS [L6G],1.77
21,FGSRSKYSLGGVRSLNVASGSGKS [L6K],2.91
22,FGSRSMYSLGGVRSLNVASGSGKS [L6M],1.93
23,FGSRSAYSLGGVRSLNVASGSGKS [L6A],1.67
24,FGSRSCYSLGGVRSLNVASGSGKS [L6C],2.04
25,FGSRSSYSLGGVRSLNVASGSGKS [L6S],2.13
26,FGSRSNYSLGGVRSLNVASGSGKS [L6N],2.76

row,Variant,protein stability index
1,FGSRSHYSLGGVRSLNVASGSGKS [L6H],2.33
2,FGSRSDYSLGGVRSLNVASGSGKS [L6D],3.7
3,FGSRSRYSLGGVRSLNVASGSGKS [L6R],2.65
4,FGSRSTYSLGGVRSLNVASGSGKS [L6T],3.13
5,FGSRSPYSLGGVRSLNVASGSGKS [L6P],1.74
6,FGSRSYYSLGGVRSLNVASGSGKS [L6Y],1.48
7,FGSISLYSLGGVRSLNVASGSGKS [R4I],1.7
8,FGSLSLYSLGGVRSLNVASGSGKS [R4L],1.75
9,FGSFSLYSLGGVRSLNVASGSGKS [R4F],1.58
10,FGSQSLYSLGGVRSLNVASGSGKS [R4Q],2.5
11,FGSHSLYSLGGVRSLNVASGSGKS [R4H],2.15
12,FGSSSLYSLGGVRSLNVASGSGKS [R4S],2.31
13,FGSYSLYSLGGVRSLNVASGSGKS [R4Y],2.77
14,FGSASLYSLGGVRSLNVASGSGKS [R4A],2.71
15,FGSPSLYSLGGVRSLNVASGSGKS [R4P],1.35
16,FGSDSLYSLGGVRSLNVASGSGKS [R4D],2.44
17,FGSNSLYSLGGVRSLNVASGSGKS [R4N],2.12
18,FGSVSLYSLGGVRSLNVASGSGKS [R4V],1.52
19,FGSKSLYSLGGVRSLNVASGSGKS [R4K],2.14
20,FGSGSLYSLGGVRSLNVASGSGKS [R4G],2.56
21,FGSMSLYSLGGVRSLNVASGSGKS [R4M],1.88
22,FGSCSLYSLGGVRSLNVASGSGKS [R4C],2.35
23,FGSWSLYSLGGVRSLNVASGSGKS [R4W],1.62
24,FGSESLYSLGGVRSLNVASGSGKS [R4E],2.44
25,FGSTSLYSLGGVRSLNVASGSGKS [R4T],2

# Variants of: B2
# Assay: as above
# Conditions: c terminus: a fixed tail appended
row,Variant,protein stability index
1,EPLPVERDPAAGAGPFRFVARPVR [A14G],2.55
2,EPLPVERDRAAGAAPFRFVARPVR [P9R],1.54
3,EPLPVERDQAAGAAPFRFVARPVR [P9Q],1.98
4,EPLPVERDTAAGAAPFRFVARPVR [P9T],2.74
5,EPLPVERDPAAGAAPIRFVARPVR [F16I],4.73
6,EPLPVERDPAAGRAPFRFVARPVR [A13R],2.34
7,EPLPVERDPAAGMAPFRFVARPVR [A13M],3.42
8,EPLPVERDPAAGAAPFPFVARPVR [R17P],4.88
9,EPGPVERDPAAGAAPFRFVARPVR [L3G],2.23
10,EPLPVERDPAAGAAPFRFVANPVR [R21N],1.59
11,EPLPVERDPAAGAAPFRFVASPVR [R21S],2.14
12,EPLPVERDPAAGAAPFRFVARMVR [P22M],2.48
13,EPLPVERDPLAGAAPFRFVARPVR [A10L],2.71
14,EPLPVERDPATGAAPFRFVARPVR [A11T],2.08
15,EPLPVERDPAAGAACFRFVARPVR [P15C],3.77
16,EPLRVERDPAAGAAPFRFVARPVR [P4R],3.23
17,EPLEVERDPAAGAAPFRFVARPVR [P4E],2.43

# Source: the supplement of paper PMC10567573
